Data from PMC4992171.

Columns and labels:
iRFP713 [1] = experiment: SEC; side-by-side comparison of miRFPs with IFP2.0 and iRFP713 (Supplementary Fig. 3 or 4), HiLoad 16/600 Superdex 200; concentration not given
iRFP713 [2] = experiment: AUC; sedimentation velocity, 20 °C, 58,000 r.p.m., PBS, absorbance at 645 nm, protein at A645 ≈0.9; side-by-side comparison of miRFPs with IFP2.0 and iRFP713
IFP2.0 [3] = experiment: SEC; side-by-side comparison of miRFPs with IFP2.0 and iRFP713 (Supplementary Fig. 3 or 4), HiLoad 16/600 Superdex 200; concentration not given
IFP2.0 [4] = experiment: AUC; sedimentation velocity, 20 °C, 58,000 r.p.m., PBS, absorbance at 645 nm, protein at A645 ≈0.9; side-by-side comparison of miRFPs with IFP2.0 and iRFP713

Row | stoichiometry N (iRFP713 [1]) | stoichiometry N (iRFP713 [2]) | stoichiometry N (IFP2.0 [3]) | stoichiometry N (IFP2.0 [4]) | Substance
1 | 2 | 2 |  |  | iRFP713
2 |  |  | 2 | 2 | IFP2.0
